This series concerns the target T1, Sif (Lmo0946-His6) (Listeria monocytogenes EGD-e) (UniProt Q8Y8F8).
T1 sequence: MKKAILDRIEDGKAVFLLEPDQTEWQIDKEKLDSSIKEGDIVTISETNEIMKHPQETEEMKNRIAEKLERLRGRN
Nature of the series: EMSA. Conditions: EMSA 37 C 30 min, 4.2% native PAGE, ethidium bromide stain; binding buffer not stated (protein dialyzed in 20 mM Tris-HCl pH 8.0, 150 mM NaCl, 1% glycerol). In general terms: In EMSA bound probe runs differently from free probe, usually more slowly.

Turning to “GCGGTATGTTTCCACTGTCGCTGTAATACCTGATTGTTCTTTAGAAAGGTCGCGTAGTCGCTTTGGATCAGATACTACATCTGGATCACTTAGTAGTTCATTTAGTTCATCATAACGGTCTTCCACCGCCTGTAATCGATCATACATTGTATTCCAACACCTCTTTAACTTATTTTATTGGTGGATTGGCATGACATTTGCGACACACAGGGTAATAGTGGTCATTTCCGCCAATCATAATTTGTTCACCTGTATAAACTGGTTTTCCTTTGTCATCAACGCGCAG (double strand) [prfA promoter region]”, the binding entry is “no binding”.

Regarding “AGCGAATTAGCTCAAGTCCTCCATACCCCGTCGCGCCAATGATTGAAACTTTCATCCTAACCCCTCCCCGTTAATTATTAAATGATACTTTTCATTATAATGATGTATATTTATAATGTCAAATGGTTTTTTATTAATATTTAAAACTATTTTATGCATTTTAAGTTATTTATTATGTATATAATATACAAAAAACCGTTTATCCTTTTCTAGGATAAACGGTTAATCTTAAAATAAATCAGCGAACTCATCTTTCACTTGCGCAGTTTCCGCTAC (double strand) [argC promoter region]”, the binding result is reported as “no binding”.
